The test deals with vitamin K-dependent gamma-glutamyl carboxylase. Put plainly: inhibition constant of the propeptide toward the carboxylase; assay not described in the example.

consensus propeptide sequence gave a Ki of 0.43 nM.

A word on the Ki: it is a dissociation constant, usually derived from enzyme kinetics or from competition with a known ligand. High values mean a looser hold on the target, low ones a stronger hold on the target.

(Values after US20030220247A1.)
